This note sets out measurements from paper PMC10381965.

The target of this data set is CBF1;CCAN (CENP-LN, CENP-OPQU+, CENP-HIK-TW, CENP-C) (Saccharomyces cerevisiae;Saccharomyces …, UniProt P17106;P38907;P38265;Q06675;Q02732;P53298;P38313;Q12493;Q06162;Q12262;Q12748;P47 …, |). In words: cryo-EM structure (3.4 Å); free C0N3 DNA without octamer; topological entrapment, 25 bp contacted; Binding buffer for IK assembly not given in the material; proteins purified in 20 mM Hepes pH 8.0, 300 mM NaCl, 0.5 mM TCEP.

B1: C0N3 153 bp (chimeric CEN3/W601) (dsDNA)
DNA 1: ATAAGTCACATGGTGCCGAGGCCGCTCAATTGGTCGTAGACAGCTCTAGCACCGCTTAAACGCACGTACGCGCTGTCCCCCGCGTTTTAATATTAGTGTATTTGATTTCCGAAAGTTAAAAAAGAAATAGTAAGAAATATATATTTCATTGAA
DNA 2: TTCAATGAAATATATATTTCTTACTATTTCTTTTTTAACTTTCGGAAATCAAATACACTAATATTAAAACGCGGGGGACAGCGCGTACGTGCGTTTAAGCGGTGCTAGAGCTGTCTACGACCAATTGAGCGGCCTCGGCACCATGTGACTTAT
Consider B1, for which the binding result was “binds”.
